Experiment [1] has as its target T1, rhesus ERBB3 on transiently transfected HEK-293 cells (rhesus monkey (Macaca mulatta), UniProt P21860 20-1342 (human entry)).
T1 construct: also called rhesus ERBB3+ HEK-293 cells
T1 chain: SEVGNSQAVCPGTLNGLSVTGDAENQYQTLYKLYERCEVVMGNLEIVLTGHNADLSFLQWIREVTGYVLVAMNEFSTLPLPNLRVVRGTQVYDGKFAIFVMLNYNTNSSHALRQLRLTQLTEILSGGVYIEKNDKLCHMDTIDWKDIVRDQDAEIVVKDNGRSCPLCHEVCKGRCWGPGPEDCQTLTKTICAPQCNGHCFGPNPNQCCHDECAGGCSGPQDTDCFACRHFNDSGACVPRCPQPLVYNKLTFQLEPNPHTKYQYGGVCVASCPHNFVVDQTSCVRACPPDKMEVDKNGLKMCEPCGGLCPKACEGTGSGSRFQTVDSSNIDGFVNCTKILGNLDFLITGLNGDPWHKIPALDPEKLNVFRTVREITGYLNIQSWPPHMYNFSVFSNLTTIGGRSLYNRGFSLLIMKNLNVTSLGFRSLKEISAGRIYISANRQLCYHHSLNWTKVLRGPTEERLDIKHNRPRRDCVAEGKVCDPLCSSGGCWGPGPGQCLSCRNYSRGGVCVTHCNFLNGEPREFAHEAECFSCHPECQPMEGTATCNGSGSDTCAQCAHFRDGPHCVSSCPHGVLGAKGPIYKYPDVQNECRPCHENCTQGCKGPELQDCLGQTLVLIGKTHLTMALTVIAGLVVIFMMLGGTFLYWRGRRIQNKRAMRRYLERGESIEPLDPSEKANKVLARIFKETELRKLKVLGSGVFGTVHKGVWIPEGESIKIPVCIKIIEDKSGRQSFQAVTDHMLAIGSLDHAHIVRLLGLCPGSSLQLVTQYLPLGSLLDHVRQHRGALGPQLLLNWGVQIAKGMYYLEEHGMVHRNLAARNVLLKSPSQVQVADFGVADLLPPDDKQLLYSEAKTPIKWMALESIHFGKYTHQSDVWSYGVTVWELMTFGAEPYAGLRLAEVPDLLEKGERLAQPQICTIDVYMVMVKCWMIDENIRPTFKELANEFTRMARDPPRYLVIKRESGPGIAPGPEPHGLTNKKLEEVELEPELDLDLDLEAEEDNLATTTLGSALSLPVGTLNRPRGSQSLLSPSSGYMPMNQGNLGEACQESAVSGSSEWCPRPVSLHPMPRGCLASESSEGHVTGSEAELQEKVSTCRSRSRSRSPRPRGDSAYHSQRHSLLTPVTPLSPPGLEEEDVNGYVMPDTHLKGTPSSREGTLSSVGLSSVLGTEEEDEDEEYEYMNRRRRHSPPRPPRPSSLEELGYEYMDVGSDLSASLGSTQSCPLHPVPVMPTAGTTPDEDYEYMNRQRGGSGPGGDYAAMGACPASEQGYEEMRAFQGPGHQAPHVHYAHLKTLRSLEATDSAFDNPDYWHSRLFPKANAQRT
Briefly: flow cytometry, rhesus ERBB3-transfected HEK-293. As to the method: (§1) Purified IgGs were tested in FACs for binding to human and rhesus monkey ERBB3 expressed on transiently transfected HEK-293 cells and HEK-293 wild-type cells. The IgG samples were titrated in three-fold serial dilutions starting at 500 nM to 0.008 nM. Binding of IgGs was detected with a mouse anti-human IgG conjugated to FITC. Results were analyzed by examining the Mean Fluorescence Intensity (MFI) of 10000 cells per sample in the BL-1 channel detector of a flow cytometer (Attune™ NxT Acoustic Focusing Cytometer, Invitrogen/ThermoFisher Scientific).
(§2) Antibodies to ERBB3 were analysed for concentration-dependent binding at the cell surface via flow cytometry. HEK-293 cells were transiently transfected with either human or rhesus ERBB3 full-length cDNAs. Anti-ERBB3 IgGs and an isotype control were then all tested in IgG1null format, over a concentration range of 500-0.008 nM for binding to human (FIG. 5A) and rhesus (FIG. 5B) transfected cells.
A general note: A flow cytometer gives signals particle by particle.

The target of experiment [2] is T2, human ERBB3 on transiently transfected HEK-293 cells (human, UniProt P21860 20-1342).
T2 construct: also called human ERBB3+ HEK-293 cells
The experiment is described as follows: flow cytometry, human ERBB3-transfected HEK-293. How it is done:
as §1, §2

In experiment [3] the target is T3, rhesus monkey ERBB3 His tag, monomeric (rhesus monkey (Macaca mulatta), UniProt P21860 20-643 (human entry), limits assumed).
T3 chain: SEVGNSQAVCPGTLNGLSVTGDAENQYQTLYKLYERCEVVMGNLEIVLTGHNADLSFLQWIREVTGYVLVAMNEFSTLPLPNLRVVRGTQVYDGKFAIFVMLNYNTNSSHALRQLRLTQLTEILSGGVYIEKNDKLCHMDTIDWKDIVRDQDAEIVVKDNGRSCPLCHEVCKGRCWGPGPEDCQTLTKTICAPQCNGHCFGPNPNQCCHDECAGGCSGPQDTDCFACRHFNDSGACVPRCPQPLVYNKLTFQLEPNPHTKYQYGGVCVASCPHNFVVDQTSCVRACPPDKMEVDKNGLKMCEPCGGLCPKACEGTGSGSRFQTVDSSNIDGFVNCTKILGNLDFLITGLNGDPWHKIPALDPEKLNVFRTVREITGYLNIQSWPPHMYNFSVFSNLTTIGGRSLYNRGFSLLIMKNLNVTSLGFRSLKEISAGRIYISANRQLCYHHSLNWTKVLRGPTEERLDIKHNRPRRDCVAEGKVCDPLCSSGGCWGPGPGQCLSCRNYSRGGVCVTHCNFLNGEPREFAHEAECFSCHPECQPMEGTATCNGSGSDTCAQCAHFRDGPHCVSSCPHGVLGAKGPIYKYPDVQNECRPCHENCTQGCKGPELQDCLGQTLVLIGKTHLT
The experiment is described as follows: SPR (Biacore), captured IgG, monomeric ERBB3-His analyte. How it is done:
(§3) Affinity (KD) of purified IgGs was determined via SPR with antigen in-solution on a Biacore® 3000 (GE). A mouse anti-human antibody (CH1 specific) was immobilized on a CM5 Sensor Chip to a level of 2000 RU in acetate buffer at pH 4.5 using amine coupling following the Wizard instructions for two channels. One channel was used for background signal correction. The standard running buffer HBS-EP pH 7.4 was used. Regeneration was performed with a single injection of 10 μl of 10 mM Glycine at pH 1.5 at […]. IgG samples were injected for 2 minutes at 50 nM at 30 μl/min followed by an off-rate of 60 seconds. The monomeric antigen (human ERBB3 His tagged or rhesus monkey ERBB3 His tag) was injected in two fold serial dilutions from 3 nM down to 0.2 nM, for 2 minutes at 30 μl/min followed by an off-rate of 300 seconds. The obtained sensorgrams were analysed using the Biacore® 3000 evaluation (BlAevaluation) software. The KD was calculated by simultaneous fitting of the association and dissociation phases to a 1:1 Langmuir binding model.
(§4) Biacore® analyses of binding affinity were performed for all IgGs to solution-phase, monomeric human and rhesus ERBB3 proteins.
For orientation: Surface plasmon resonance follows binding to a sensor surface in real time, without labels.

Experiment [4] has as its target T4, human ERBB3 His tagged, monomeric (human, UniProt P21860 20-643, biotinylated in the Alphascreen assays (sites not given)).
T4 construct: Used unbiotinylated as Biacore analyte and biotinylated in Alphascreen; treated as one molecule; also called human ERBB3-His (Acrobiosystems); biotinylated monomeric human ERBB3
Described as above. How it is done: as §3, §4

B1: 16B09 IgG1null (antibody, V domains shown)
VH: QVQLVESGGGLVKPGGSLRLSCAASGFTFSDYSMSWIRQAPGKGLEWVSTISDSGTYTYYPDSVKGRFTISRDNAKNSLYLQMNSLRAEDTAVYYCAREWGDYDGFDFWGQGTLVTVSS
VL: DIQMTQSPSSLSASVGDRVTITCRASQEISSYLSWYQQKPGKAPKLLIYAASTLQSGVPSRFSGSGSGTDFTLTISSLQPEDFATYYCLQYDSTPLTFGGGTKVEIK
notes: Human IgG1null (L234A, L235A, G237A) and human Ckappa
For B1, in experiment [1], the “maximum MFI, fold over isotype control background” value (“maximum MFI, fold” for short) is above 20 fold. In addition, the “maximum MFI, fold” value in experiment [2] was above 20 fold. In addition, in experiment [3], the dissociation constant (Kd) worked out at 0.21 nM, the koff came out at 0.0027 s⁻¹ and the kon stood at 1.3e+07 M⁻¹ s⁻¹. In experiment [4], this molecule registered a Kd of 0.089 nM, an off-rate constant (koff) of 0.0014 s⁻¹ and a kon of 1.6e+07 M⁻¹ s⁻¹.

B2: MH1 IgG1null (antibody, V domains shown)
VH: QVQLVESGGGLVKPGGSLRLSCAASGFTFSDYGMSWIRQAPGKGLEWVSTISDSGSYIYYADSVKGRFTISRDNAKNSLYLQMNSLRAEDTAVYYCARELGDYDGFDYWGQGTLVTVSS
VL: DIQMTQSPSSLSASVGDRVTITCRASQSISSYLSWYQQKPGKAPKLLIYAASSLQSGVPSRFSGSGSGTDFTLTISSLQPEDFATYYCLQYDSTPLTFGGGTKVEIK
notes: Designer (Maximally Humanized) clone; Human IgG1null and human Ckappa
Consider B2, for which the “maximum MFI, fold” value in experiment [1] was above 20 fold. The “maximum MFI, fold” value in experiment [2] was above 20 fold. In addition, in experiment [3], the Kd stood at 0.45 nM, the koff is 0.0056 s⁻¹ and the on-rate (kon) was 1.3e+07 M⁻¹ s⁻¹. Besides, in experiment [4], the Kd was determined as 0.51 nM, the koff came to 0.0035 s⁻¹ and the kon is 6.8e+06 M⁻¹ s⁻¹.

B3: MH4 IgG1null (antibody, V domains shown)
VH: QVQLVESGGGLVKPGGSLRLSCAASGFTFSDYGMSWIRQAPGKGLEWVSTISDSGSYIYYADSVKGRFTISRDNAKNSLYLQMNSLRAEDTAVYYCAREWGDYDGFDEWGQGTLVTVSS
VL: DIQMTQSPSSLSASVGDRVTITCRASQSISSYLSWYQQKPGKAPKLLIYAASSLQSGVPSRFSGSGSGTDFTLTISSLQPEDFATYYCLQYDSTPLTFGGGTKVEIK
notes: as for B2
As to B3, in experiment [1], the “maximum MFI, fold” value is above 20 fold. Also, in experiment [2], the “maximum MFI, fold” value was above 20 fold. In addition, in experiment [3], the Kd came out at 0.21 nM, the koff turned out to be 0.0047 s⁻¹ and the kon is 2.2e+07 M⁻¹ s⁻¹. Besides, in experiment [4], the affinity, expressed as Kd, was 0.26 nM; the koff is 0.0029 s⁻¹; the kon amounted to 1.1e+07 M⁻¹ s⁻¹.

B4: MH5 IgG1null (antibody, V domains shown)
VH: QVQLVESGGGLVKPGGSLRLSCAASGFTFSDYGMSWIRQAPGKGLEWVSTISDSGSTIYYADSVKGRFTISRDNAKNSLYLQMNSLRAEDTAVYYCAREYGDYDGFDYWGQGTLVTVSS
VL: DIQMTQSPSSLSASVGDRVTITCRASQSISSYLSWYQQKPGKAPKLLIYAASSLQSGVPSRFSGSGSGTDFTLTISSLQPEDFATYYCLQYDSTPLTFGGGTKVEIK
notes: as for B2
As for B4, the “maximum MFI, fold” value in experiment [1] was above 20 fold. For the same molecule, the “maximum MFI, fold” value in experiment [2] was above 20 fold. Also, in experiment [3], the Kd was 0.51 nM, the off-rate (koff) was found to be 0.006 s⁻¹ and the kon is 1.2e+07 M⁻¹ s⁻¹. In experiment [4], this molecule showed a Kd of 0.71 nM, a koff of 0.0041 s⁻¹ and a kon of 5.8e+06 M⁻¹ s⁻¹.

B5: 17H10 IgG1null (antibody, V domains shown)
VH: QVQLVESGGGLVKPGGSLRLSCAASGFTFSDYGMSWIRQAPGKGLEWVSTISDGGSYTYYADSVKGRFTISRDNAKNSLYLQMNSLRAEDTAVYYCAREWGDYDGFDEWGQGTLVTVSS
VL: DIQMTQSPSSLSASVGDRVTITCRASQSISGYLSWYQQKPGKAPKLLIYAASTLQSGVPSRFSGSGSGTDFTLTISSLQPEDFATYYCLQYDSTPYTFGGGTKVEIK
notes: Human IgG1null and human Ckappa
B5: the “maximum MFI, fold” value in experiment [1] and in experiment [2] was above 20 fold in each case. Moreover, the Kd was determined as 0.65 nM in experiment [3] and 0.19 nM in experiment [4]. The koff in experiment [3] worked out at 0.0018 s⁻¹; in experiment [4], 0.0017 s⁻¹. Besides, the kon came out at 2.7e+06 M⁻¹ s⁻¹ in experiment [3] and 9.3e+06 M⁻¹ s⁻¹ in experiment [4].

By Kd is commonly meant the free concentration of one partner at which half of the binding sites on the other are occupied at equilibrium, for simple one-to-one binding. Broadly, the koff is a measure of how fast the partners let go of each other. A word on the kon: it is the rate constant with which the complex forms.

The values above are taken from patent US20200339702A1 (ULTRAHUMAN THIRTEEN, published 2020).
